{
  "source": "patent US10500249B2",
  "about": "“Compositions and methods for preventing or treating diseases, conditions, or processes characterized by aberrant fibroblast proliferation and extracellular matrix deposition” (MOERAE MATRIX, INC., priority 2014, dated 2019)",
  "assay_in_all_cases": "Kinase Profiling Assay",
  "assay_type_in_all_cases": "biochemical",
  "conditions_in_all_cases": "100 μM",
  "key": {"NEK7 (h)": {"molecular_target": "T1, NEK7 (h) (Homo sapiens, UniProt Q8TDX7)", "T1 construct": "purchased Millipore", "T1 sequence (Q8TDX7 whole entry)": "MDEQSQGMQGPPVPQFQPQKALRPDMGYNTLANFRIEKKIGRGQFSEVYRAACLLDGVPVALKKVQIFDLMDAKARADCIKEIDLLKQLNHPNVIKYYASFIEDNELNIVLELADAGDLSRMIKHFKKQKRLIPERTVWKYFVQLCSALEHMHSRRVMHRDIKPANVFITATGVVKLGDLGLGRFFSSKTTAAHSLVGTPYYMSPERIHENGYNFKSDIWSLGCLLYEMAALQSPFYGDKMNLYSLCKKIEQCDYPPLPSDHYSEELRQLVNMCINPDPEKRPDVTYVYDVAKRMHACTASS", "in_short": "(§1)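 Each kinase activity was measured in duplicate. Phosphorylation of a positively charged substrate with radiolabeled phosphate from ATP was captured on a negatively charged filter, counted by scintillation and expressed relative to a 100% activity control. MK2 inhibitory peptides were screened for specificity across 266 human kinases.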"}, "PKCε (h)": {"molecular_target": "T2, PKCε (h) (Homo sapiens, UniProt Q02156)", "T2 construct": "purchased Millipore", "T2 sequence (Q02156 1-737)": "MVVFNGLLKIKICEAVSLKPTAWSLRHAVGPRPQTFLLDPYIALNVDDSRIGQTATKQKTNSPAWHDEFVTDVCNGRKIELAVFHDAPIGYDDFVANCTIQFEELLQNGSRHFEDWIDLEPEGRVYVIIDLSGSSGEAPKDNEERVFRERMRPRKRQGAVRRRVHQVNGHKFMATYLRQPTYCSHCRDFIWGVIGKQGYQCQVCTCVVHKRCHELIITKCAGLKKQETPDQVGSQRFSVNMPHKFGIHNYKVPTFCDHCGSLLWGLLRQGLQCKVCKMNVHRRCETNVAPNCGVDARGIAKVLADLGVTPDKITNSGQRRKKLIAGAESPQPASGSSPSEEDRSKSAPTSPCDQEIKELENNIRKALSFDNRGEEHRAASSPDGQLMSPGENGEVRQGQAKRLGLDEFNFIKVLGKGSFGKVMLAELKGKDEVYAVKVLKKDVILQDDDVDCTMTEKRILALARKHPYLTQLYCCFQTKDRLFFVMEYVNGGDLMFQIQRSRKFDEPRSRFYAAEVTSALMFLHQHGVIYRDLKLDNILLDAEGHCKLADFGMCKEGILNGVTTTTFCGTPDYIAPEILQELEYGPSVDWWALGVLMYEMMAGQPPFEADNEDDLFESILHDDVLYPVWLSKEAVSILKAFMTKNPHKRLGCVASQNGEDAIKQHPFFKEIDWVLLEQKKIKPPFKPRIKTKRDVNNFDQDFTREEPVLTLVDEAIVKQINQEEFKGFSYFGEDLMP", "in_short": "as §1"}, "TAO1 (h)": {"molecular_target": "T3, TAO1 (h) (Homo sapiens, UniProt Q7L7X3)", "T3 sequence (Q7L7X3 1-1001)": "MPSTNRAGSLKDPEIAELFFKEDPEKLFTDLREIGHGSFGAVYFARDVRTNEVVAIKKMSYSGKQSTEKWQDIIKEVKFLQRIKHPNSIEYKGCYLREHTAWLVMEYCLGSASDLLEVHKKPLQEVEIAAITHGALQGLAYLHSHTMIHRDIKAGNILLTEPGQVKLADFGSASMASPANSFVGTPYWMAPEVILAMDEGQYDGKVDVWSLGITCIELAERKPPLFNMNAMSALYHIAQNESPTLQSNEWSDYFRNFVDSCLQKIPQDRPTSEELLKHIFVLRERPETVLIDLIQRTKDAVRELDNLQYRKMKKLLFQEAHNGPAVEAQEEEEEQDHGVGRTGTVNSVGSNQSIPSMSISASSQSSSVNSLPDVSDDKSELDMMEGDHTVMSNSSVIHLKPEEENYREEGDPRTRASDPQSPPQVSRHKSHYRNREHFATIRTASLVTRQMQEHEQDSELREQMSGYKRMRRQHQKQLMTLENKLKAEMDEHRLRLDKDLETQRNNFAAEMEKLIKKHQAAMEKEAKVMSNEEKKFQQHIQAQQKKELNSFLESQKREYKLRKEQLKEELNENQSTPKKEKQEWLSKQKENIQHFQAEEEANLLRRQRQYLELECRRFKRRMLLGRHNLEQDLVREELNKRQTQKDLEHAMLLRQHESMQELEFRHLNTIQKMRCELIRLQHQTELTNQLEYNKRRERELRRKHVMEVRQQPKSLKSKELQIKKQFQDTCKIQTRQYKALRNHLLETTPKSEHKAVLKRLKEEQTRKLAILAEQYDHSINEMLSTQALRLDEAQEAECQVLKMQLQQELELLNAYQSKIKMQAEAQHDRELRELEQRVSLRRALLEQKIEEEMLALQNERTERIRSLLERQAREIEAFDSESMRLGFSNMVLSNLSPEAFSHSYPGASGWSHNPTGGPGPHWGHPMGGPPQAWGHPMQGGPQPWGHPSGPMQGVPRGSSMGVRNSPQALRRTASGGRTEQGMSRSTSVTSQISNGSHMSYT", "in_short": "as §1"}, "PDK1 (h)": {"molecular_target": "T4, PDK1 (h) (Homo sapiens, UniProt O15530)", "T4 construct": "purchased Millipore", "T4 sequence (O15530 1-556)": "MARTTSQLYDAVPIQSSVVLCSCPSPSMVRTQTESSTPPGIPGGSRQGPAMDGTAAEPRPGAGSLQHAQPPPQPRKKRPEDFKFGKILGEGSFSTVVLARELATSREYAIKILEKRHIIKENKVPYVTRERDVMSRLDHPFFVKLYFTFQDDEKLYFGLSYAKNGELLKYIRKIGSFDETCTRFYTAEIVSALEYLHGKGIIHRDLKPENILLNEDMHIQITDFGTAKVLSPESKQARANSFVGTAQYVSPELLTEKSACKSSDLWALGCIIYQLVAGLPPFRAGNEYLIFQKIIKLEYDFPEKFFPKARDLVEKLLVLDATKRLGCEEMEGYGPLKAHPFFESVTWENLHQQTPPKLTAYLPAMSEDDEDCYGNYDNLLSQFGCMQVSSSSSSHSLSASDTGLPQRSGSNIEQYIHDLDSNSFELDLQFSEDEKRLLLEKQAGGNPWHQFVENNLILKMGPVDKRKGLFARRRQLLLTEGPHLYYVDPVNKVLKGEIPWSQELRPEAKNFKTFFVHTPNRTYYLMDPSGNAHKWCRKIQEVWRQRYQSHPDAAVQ", "in_short": "as §1"}, "MEK1 (h)": {"molecular_target": "MEK1 (h) (Homo sapiens, UniProt Q02750)", "in_short": "as §1"}},
  "data": [
    {"sequence": "KAFAKLAARLYRKALARQLGVAA [MMI-0400]", "values": [
      {"measurement": "% activity", "setting": "NEK7 (h)", "result": 87, "unit": "%"},
      {"measurement": "% activity", "setting": "PKCε (h)", "result": 59, "unit": "%"},
      {"measurement": "% activity", "setting": "TAO1 (h)", "result": 73, "unit": "%"},
      {"measurement": "% activity", "setting": "PDK1 (h)", "result": 159, "unit": "%"},
      {"measurement": "% activity", "setting": "MEK1 (h)", "result": 77, "unit": "%"}
    ]},
    {"sequence": "YARAAARQARAKALNRQLGVA (Mammalian) [MMI-0200]", "values": [
      {"measurement": "% activity", "setting": "NEK7 (h)", "result": 96, "unit": "%"},
      {"measurement": "% activity", "setting": "PKCε (h)", "result": 98, "unit": "%"},
      {"measurement": "% activity", "setting": "PDK1 (h)", "result": 143, "unit": "%"}
    ]},
    {"sequence": "HRRIKAWLKKIKALARQLGVAA (Mammalian) [MMI-0500]", "values": [
      {"measurement": "% activity", "setting": "NEK7 (h)", "result": 89, "unit": "%"},
      {"measurement": "% activity", "setting": "PKCε (h)", "result": 23, "unit": "%"},
      {"measurement": "% activity", "setting": "TAO1 (h)", "result": 24, "unit": "%"},
      {"measurement": "% activity", "setting": "PDK1 (h)", "result": 178, "unit": "%"},
      {"measurement": "% activity", "setting": "MEK1 (h)", "result": 21, "unit": "%"}
    ]},
    {"sequence": "FAKLAARLYRKALARQLGVAA [MMI-0300]", "values": [
      {"measurement": "% activity", "setting": "NEK7 (h)", "result": 84, "unit": "%"},
      {"measurement": "% activity", "setting": "PKCε (h)", "result": 79, "unit": "%"},
      {"measurement": "% activity", "setting": "TAO1 (h)", "result": 82, "unit": "%"},
      {"measurement": "% activity", "setting": "PDK1 (h)", "result": 135, "unit": "%"},
      {"measurement": "% activity", "setting": "MEK1 (h)", "result": 77, "unit": "%"}
    ]}
  ]
}
